Measured values taken from patent US20070224205A1.

Molecular target: Toll-like Receptor 5 (UniProt O60602)
Assay: cell-based or functional assay

B1: STF2.HA1-3(PR8), produced in E. coli (protein)
chain: MAQVINTNSLSLLTQNNLNKSQSALGTAIERLSSGLRINSAKDDAAGQAIANRFTANIKGLTQASRNANDGISIAQTTEGALNEINNNLQRVRELAVQSANSTNSQSDLDSIQAEITQRLNEIDRVSGQTQFNGVKVLAQDNTLTIQVGANDGETIDIDLKQINSQTLGLDSLNVQKAYDVKDTAVTTKAYANNGTTLDVSGLDDAAIKAATGGTNGTASVTGGAVKFDADNNKYFVTIGGFTGADAAKNGDYEVNVATDGTVTLAAGATKTTMPAGATTKTEVQELKDTPAVVSADAKNALIAGGVDATDANGAELVKMSYTDKNGKTIEGGYALKAGDKYYAADYDEATGAIKAKTTSYTAADGTTKTAANQLGGVDGKTEVVTIDGKTYNASKAAGHDFKAQPELAEAAAKTTENPLQKIDAALAQVDALRSDLGAVQNRFNSAITNLGNTVNNLSEARSRIEDSDYATEVSNMSRAQILQQAGTSVLAQANQVPQNVLSLLANSENGICYPGDFIDYEELREQLSSVSSFERFEIFPKESSWPNHNTNGVTAACSHEGKSSFYRNLLWLTEKEGSYPKLKNSYVNKKGKEVLVLWGIHHPPNSKEQQNLYQNENAYVSVVTSNYNRRFTPEIAERPKVRDQAGRMNYYWTLLKPGDTIIFEANGNLIAPMYAFALSRG
TLR5 activity (EC50, ng/ml); IL-8 secretion by HEK293 cells: 1.2 ng/mL

B2: STF2.HA1-1His(PR8), produced in Baculovirus (protein)
chain: AQVINTNSLSLLTQNNLNKSQSALGTAIERLSSGLRINSAKDDAAGQAIANRFTANIKGLTQASRNANDGISIAQTTEGALNEINNNLQRVRELAVQSANSTNSQSDLDSIQAEITQRLNEIDRVSGQTQFNGVKVLAQDNTLTIQVGANDGETIDIDLKQINSQTLGLDSLNVQKAYDVKDTAVTTKAYANNGTTLDVSGLDDAAIKAATGGTNGTASVTGGAVKFDADNNKYFVTIGGFTGADAAKNGDYEVNVATDGTVTLAAGATKTTMPAGATTKTEVQELKDTPAVVSADAKNALIAGGVDATDANGAELVKMSYTDKNGKTIEGGYALKAGDKYYAADYDEATGAIKAKTTSYTAADGTTKTAANQLGGVDGKTEVVTIDGKTYNASKAAGHDFKAQPELAEAAAKTTENPLQKIDAALAQVDALRSDLGAVQNRFNSAITNLGNTVNNLSEARSRIEDSDYATEVSNMSRAQILQQAGTSVLAQANQVPQNVLSLLASGSGSGSSHNGKLCRLKGIAPLQLGKCNIAGWLLGNPECDPLLPVRSWSYIVETPNSENGICYPGDFIDYEELREQLSSVSSFERFEIFPKESSWPNHNTNGVTAACSHEGKSSFYRNLLWLTEKEGSYPKLKNSYVNKKGKEVLVLWGIHHPPNSKEQQNLYQNENAYVSVVTSNYNRRFTPEIAERPKVRDQAGRMNYYWTLLKPGDTIIFEANGNLIAPMYAFALSRGFGSGIITSNASMHECNTKCQTPLGAINSSLPYQNIHPVTIGECPKYVRHHHHHH
TLR activity (EC50, ng/ml); IL-8 secretion by HEK293 cells: 3 ng/mL

B3: STF2.EIII+ (protein)
chain: MAQVINTNSLSLLTQNNLNKSQSALGTAIERLSSGLRINSAKDDAAGQAIANRFTANIKGLTQASRNANDGISIAQTTEGALNEINNNLQRVRELAVQSANSTNSQSDLDSIQAEITQRLNEIDRVSGQTQFNGVKVLAQDNTLTIQVGANDGETIDIDLKQINSQTLGLDSLNVQKAYDVKDTAVTTKAYANNGTTLDVSGLDDAAIKAATGGTNGTASVTGGAVKFDADNNKYFVTIGGFTGADAAKNGDYEVNVATDGTVTLAAGATKTTMPAGATTKTEVQELKDTPAVVSADAKNALIAGGVDATDANGAELVKMSYTDKNGKTIEGGYALKAGDKYYAADYDEATGAIKAKTTSYTAADGTTKTAANQLGGVDGKTEVVTIDGKTYNASKAAGHDFKAQPELAEAAAKTTENPLQKIDAALAQVDALRSDLGAVQNRFNSAITNLGNTVNNLSEARSRIEDSDYATEVSNMSRAQILQQAGTSVLAQANQVPQNVLSLLRKGNSKLEGQLEFPRTSMEKLQLKGTTYGVCSKAFKFLGTPADTGHGTVVLELQYTGTDGPCKVPISSVASLNDLTPVGRLVTVNPFVSVATANAKVLIELEPPFGDSYIVVGRGEQQINHHWHKSGSSIGK
TLR-5 EC50 (batch 052); IL-8 secretion by HEK293 cells: > 5000 ng/mL
TLR-5 EC50 (batch 054); IL-8 secretion by HEK293 cells: 1200 ng/mL
TLR-5 EC50 (batch 057); IL-8 secretion by HEK293 cells: 198 ng/mL

B4: STF2.HA1-2(PR8)mut (protein)
chain: MAQVINTNSLSLLTQNNLNKSQSALGTAIERLSSGLRINSAKDDAAGQAIANRFTANIKGLTQASRNANDGISIAQTTEGALNEINNNLQRVRELAVQSANSTNSQSDLDSIQAEITQRLNEIDRVSGQTQFNGVKVLAQDNTLTIQVGANDGETIDIDLKQINSQTLGLDSLNVQKAYDVKDTAVTTKAYANNGTTLDVSGLDDAAIKAATGGTNGTASVTGGAVKFDADNNKYFVTIGGFTGADAAKNGDYEVNVATDGTVTLAAGATKTTMPAGATTKTEVQELKDTPAVVSADAKNALIAGGVDATDANGAELVKMSYTDKNGKTIEGGYALKAGDKYYAADYDEATGAIKAKTTSYTAADGTTKTAANQLGGVDGKTEVVTIDGKTYNASKAAGHDFKAQPELAEAAAKTTENPLQKIDAALAQVDALRSDLGAVQNRFNSAITNLGNTVNNLSEARSRIEDSDYATEVSNMSRAQILQQAGTSVLAQANQVPQNVLSLLAKGAAPLQLGKCNIAGWLLGNPECDPLLPVRSWSDIAETPNSENGICYPGDFIDYEELREQLSSVSSFERFEIFPKESSWPNHNTNGVTAACSHEGKSSFYRNLLWLTEKEGSYPKLKNSYVNKKGKEVLVLWGIHHPPNSKEQQNLYQNENAYVSVVTSNYNRRFTPEIAERPKVRDQAGRMNYYWTLLKPGDTIIFEANGNLIAPMYAFALSRGFGSGIITS
TLR5 activity (EC50, ng/ml); IL-8 secretion by HEK293 cells: 1.2 ng/mL
